Data reported in patent US20090291088A1, “THERAPEUTIC COMBINATIONS OF ANTI-IGF-1R ANTIBODIES AND OTHER COMPOUNDS” (Biogen Idec MA Inc., priority 2008, published 2009).

Legend:
[1] = biological target: T1, hIGF-1R-Fc (Homo sapiens, UniProt P08069); assay: Antibody cross-blocking ELISA with biotinylated M13-C06 or M14-G11; format: binding
T1 construct: (3) human IGF-1R(1-903)-Fc (hIGF-1R-Fc, Biogen Idec); host or cells: CHO
Method: The ability of various antibodies to block M13-C06 or M14-G11 was determined using biotinylated version of both antibodies and hIGF-1R-Fc. Briefly, 50 μL of 2 μg/mL hIGF-1R-Fc in 1×PBS were coated per well of a 96-well clear MaxiSorp plate (Nunc) for 2 hours at room temperature (RT, no shaking). Plates were washed with 1×PBS and blocked overnight at 2-8° C. using a PBS/1% BSA solution. Plates were washed and incubated with a 100 μL mixture of biotinylated M13-C06 or biotinylated M14-G11 (80 ng/mL) and inhibitor antibody for 1 hour at RT. Inhibitor antibodies were serially diluted (5-fold dilutions) from 40 μg/mL to 3 ng/mL. M13-C06 and M14-G11 were biotinylated using EZ-Link Sulfo-NHS-LC-Biotin according to protocol provided by the manufacturer (Pierce Cat. No. 21335). A control was also performed by serial dilution of a non-IGF-1R specific IgG4 isotype control antibody with biotinylated M13-C06 or biotinylated M14-G11. Plates were washed and shaken for 1 hour at RT with 100 μL/well streptavidin-HRP (1:4000 dilution into blocking buffer, Southern Biotech Cat. No. 7100-05). Plates were washed and 100 μL/well SureBlue Reserve TMB Microwell Peroxidase Substrate (KPL, Cat. No. 53-00-01) was added to the wells. Detection of the presence of biotinylated M13-C06 or M14-G11 was performed by reading the absorbance at 650 nm every 5 minutes using a Wallac 1420-041 Multilabel Counter plate reader.

[2] = biological target: T2, hIGF-1R(1-462)-Fc (Homo sapiens, UniProt P08069); assay: SPR binding of immobilized antibodies to truncated hIGF-1R(1-462)-Fc versus hIGF-1R(1-903)Fc; conditions: surface immobilized antibody
T2 construct: host or cells: CHO
Source text: Next, we investigated whether M13-C06 binds the putative ligand binding domains of IGF-1R (L1-CR-L2). We generated a truncated version of the receptor containing the N-terminal three domains (residues 1-462) fused to an IgG1-Fc and compared its ability to bind M13-C06, M14-C03, and M14-G11 to that of the full-length receptor ectodomain construct, hIGF-1R-Fc, using surface plasmon resonance (SPR).

[3] = biological target: T3, recombinant human IGF-1R-10His (Homo sapiens, UniProt P08069); assay: SPR, antibodies and Fabs on IGF-1R-His captured via PENTA-His antibody; format: binding; conditions: full-length antibodies, 64 nM to 0.5 nM
T3 construct: denoted hIGF-1R(1-902)-His10, was purchased from R&D systems (Cat. No. 305-GR-050); purchased R&D Systems 305-GR-050

[4] = biological target: T4, human INSR(28-956)-His10 (Homo sapiens, UniProt P06213); assay: SPR, receptor ectodomain injected over immobilized antibodies: INSR; format: binding; conditions: full-length fully human antibodies; up to 2 μM receptor
T4 construct: human INSR(28-956)-His10 (INSR (R&D systems)); purchased R & D Systems 1544-IR
Method: (§1) SPR analyses were performed using a Biacore3000. The instrument was set to 25° C. and assays performed with running buffer HBS-EP pH 7.2 purchased from Biacore (Biacore, Cat. No. BR-1001-88). The fully human antibodies, M13-C06, M14-C03, and M14-G11 were immobilized to ˜10,000 RU on Biacore CM5 Research Grade Sensor Chip surfaces using the standard NHS/EDC-amine reactive chemistry according to protocols supplied by Biacore. For immobilization, the antibodies were diluted to 40 μg/mL in a 10 mM Acetate pH 4.0 buffer. To investigate the relative kinetics of association and dissociation of the full-length ectodomains of human IGF-1R(1-902)-His10 (hIGF-1R-His10 (R&D systems)) and human INSR(28-956)-His10 (INSR (R&D systems)) to each of the human antibodies, increasing concentrations of hIGF-1R-His10 or INSR were injected over the sensorchip surfaces. The hIGF-1R-His10 concentration series ranged from 1.0 nM to 250 nM while the INSR concentrations ranged from 1.0 nM to 2 μM. All antibody surfaces were reliably regenerated with 100 mM Glycine, pH 2.0. […] Flow rates were 20 μl/min. (“His10” denotes a 10-residue histidine tag on the C-terminus of the constructs.)

[5] = biological target: T5, human IGF-1R(1-902)-His10 (Homo sapiens, UniProt P08069); assay: SPR, receptor ectodomain injected over immobilized antibodies: hIGF-1R-His10; format: binding; conditions: full-length fully human antibodies; even at the lowest concentration
T5 construct: human IGF-1R(1-902)-His10 (hIGF-1R-His10 (R&D systems)); purchased R&D systems 305-GR-050
Method: as §1

B1: M14-C03: anti-IGF-1R antibody, allosteric blocker of IGF-1 and IGF-2 (antibody, V domains shown)
VH: EVQLLESGGGLVQPGGSLRLSCAASGFTFSKYMMSWVRQAPGKGLEWVSYISPSGGLTWYADSVKGRFTISRDNSKNTLYLQMNSLRAEDTAVYYCARDGARGYGMDVWGQGTTVTVSS
VL: DIQMTQSPATLSLSPGERATLSCRASQSVSSYLAWYQQKPGQAPRLLIYDASNRATGIPARFSGSGSGTDFTLTISSLEPEDFAVYYCQQRSNWPPEVTFGPGTKVDIK
modifications: Antibody variable heavy chain sequence; Antibody variable light chain sequence
**Q.** With B1 as the molecule, how does the M13-C06 cross-blocking [1] read?
**A.** +++++ (+++++ = antibody binding competition relative to itself (90-100%))

**Q.** And the “binding to truncated hIGF-1R(1-462)-Fc compared with full-length hIGF-1R-Fc” value [2]?
**A.** dramatically reduced

**Q.** What about the “binding to immobilized recombinant human IGF-1R (SPR)” value [3] of the same molecule?
**A.** strong binding

**Q.** What about the “binding of INSR to immobilized antibody surface” value [4] of the same molecule?
**A.** little binding activity

**Q.** And the “binding of hIGF-1R-His10 to immobilized antibody surface” value [5]?
**A.** demonstrated binding
